According to patent US20160311886A1, “Constructs Binding to Phosphatidylserine and Their Use in Disease Treatment and Imaging” (Board of Regents, The University of Texas System, priority 2005, published 2016):

Key:
MDA-MB-231 tumor vessels = assay: Double staining of orthotopic MDA-MB-231 tumors; type: in vivo, mouse; conditions: biotinylated reagent i.v., one hour
Method: In further studies, mice bearing MDA-MB-231 tumors (0.3-0.7 cm^3 in volume) were injected intravenously with 50 μg of biotinylated 9D2, control IgM or annexin V (six mice per group). Biotinylated reagents were first incubated with streptavidin-Cy3 conjugate, washed in PBS, then incubated with MECA 32 antibody followed by FITC-tagged anti-rat IgG secondary antibody. Single images, taken with appropriate filters for Cy3 (red) and FITC (green) fluorescence respectively, were captured by digital camera and transferred to a computer. […] The same method was used to analyze tumors from mice injected with control rat IgM or saline. The percentage of vessels with localized 9D2 or annexin V was calculated as follows: mean number of yellow vessels per field divided by mean number of green (total) vessels multiplied by 100.
Double staining studies were also performed in which mice bearing orthotopic MDA-MB-231 breast tumors were injected intravenously with biotinylated 9D2 antibody, biotinylated control IgM or biotinylated annexin V. One hour later, the mice were exsanguinated, and their tumors were removed and frozen sections were cut. The tumor sections were then stained with Cy3-conjugated streptavidin to detect the biotinylated proteins and with FITC-conjugated MECA32 to detect vascular endothelium. […]

human CMV AD169 = assay: CMV plaque assay after antibody treatment
Pichinde virus = type: cell-based
WiDr (colon carcinoma) = assay: WiDr colon carcinoma model; type: in vivo, mouse; conditions: 100 μg 3×/week from day 5; preliminary study
Method: Treatment was started on day 5, when the tumors were small (10 mice per group). 100 μg of each antibody was injected 3×/week and tumor growth monitored.

bEnd.3 cells = assay: Growth of bEnd.3 cells in vitro; type: cell-based, mouse; conditions: 20 μg to 40 μg total IgG per well; 48 and 96 hours
Method: 20% DMEM alone (control) or 20% DMEM containing the antibodies (20 μg to 40 μg total IgG per well) was added 4 hours after seeding. Each clone was tested on two separate plates in triplicates. Cells were detached 48 and 96 hours later, the cell count was determined in each well and the average cell number per treatment was calculated.

[1] = system: orthotopic MDA-MB-231 tumors; assay: 3G4 tumor treatment and histology; type: in vivo, mouse
Method: The general protocol for the animal tumor treatment studies is conducted as follows. Unless particular differences are specified, this is the protocol used throughout the studies of the present application.
For the syngeneic model, Meth A mouse fibrosarcoma tumor cells were used. In one xenogeneic model, human MDA-MB-231 breast tumor cells were seeded into the mammary fat pad. In another xenogeneic model, a large human Hodgkin's lymphoma L540 xenograft was established by injecting cells and allowing the tumor to grow to a size of over 500 mm^3 before treatment. […] Treatment was repeated 3 times a week. Animals were monitored twice a week for tumor measurements.
Groups of 8-10 female SCID mice were injected subcutaneously with 2×10^7 L540 cells or orthotopically with 1×10^7 MDA-MB-435 or MDA-MB-231 cells. BALB/c mice were injected subcutaneously with 1×10^6 Meth A cells. Tumors were allowed to grow to an average diameter of 0.8-1 cm (L540), 0.6-0.7 cm (MDA-MB-435), 0.5-0.7 cm (MDA-MB-231), or <0.1 cm (Meth A). […] Animals were monitored three times a week for tumor size and body weight. Mice were sacrificed when tumors in control mice reached a diameter of 1.5-2 cm.

tumor cells = assay: Direct inhibitory effects of 3G4 on tumor cells in vitro; type: cell-based
[2] = mouse, in vivo, iv
[3] = system: ABAE cells with exposed PS; assay: Live-cell binding assay on LPC-treated endothelial cells; type: cell-based, bovine; conditions: DMEM+10% FBS
In short: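 ABAE cells cultured overnight were treated with 200 μM lysophosphatidylcholine to expose PS, then fixed in 4% paraformaldehyde and antibody binding was detected with biotin anti-mouse secondary plus FITC-streptavidin, with DAPI counterstain. Binding area is expressed as FITC/DAPI pixel ratio relative to basal binding, averaged over five 200× images (±SD).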

dendritic cells = assay: DC uptake of apoptotic tumor cells; type: cell-based; conditions: Fc(γ)R mediated internalization
Text: The inventors therefore envision using the anti-PS antibodies of the present invention to enhance both […] and cellular anti-tumor immunity, and boost the efficacy of ATC based DC tumor vaccines.

**Q.** For “Annexin V: High affinity PS binding ligand; natural ligand binding anionic phospholipids and PE”, which “MECA 32 positive vessels that bound the reagent” value (MDA-MB-231 tumor vessels) is on record?
**A.** The value was “About 40%”.

B1: 3G4: Mouse IgG3 kappa monoclonal antibody to PS and anionic phospholipids; binding mediated by β2-glycoprotein I (antibody, listed as Mus musculus)
VH: MGWTWIFILILSVTTGVHSEVQLQQSGPELEKPGASVKLSCKASGYSFTGYNMNWVKQSHGKSLEWIGHIDPYYGDTSYNQKFRGKATLTVDKSSSTAYMQLKSLTSEDSAVYYCVKGGYYGHWYFDVWGAGTTVTVSSATTTAPSVYPLVP
VL: MDMRAPAQILGFLLLLFPGTRCDIQMTQSPSSLSASLGERVSLTCRASQDIGSSLNWLQQGPDGTIKRLIYATSSLDSGVPKRFSGSRSGSDYSLTISSLESEDFVDYYCLQYVSSPPTFGAGTKLELKRADAAPTVFIFGRIP
**Q.** What does the source list for B1?
**A.** inhibitory effect on viral titer (human CMV AD169; high m.o.i., addition delayed to 48 hours): 2 log10; decrease in viral titer (human CMV AD169; high m.o.i., addition up to 24 hours after infection): 5-6 log10; inhibition of viral replication vs GV39G (human CMV AD169; m.o.i. of 3, 50 μg/ml): 3 logs; decrease in viral titer vs GV39G (human CMV AD169; m.o.i. of 3, 100 μg/ml): 5 log10; decrease in viral titer vs GV39G (human CMV AD169; m.o.i.=0.01, 50 μg/ml): 3.5 log10; inhibition of viral replication (human CMV AD169; m.o.i.=0.01, 100 μg/ml): approximately 99.9999%; decrease in viral titer vs GV39G (human CMV AD169; m.o.i.=0.01 pfu/cell, 100 μg/ml): 6 log10; infected cells (Pichinde virus): about one in about a hundred cells; tumor growth (WiDr (colon carcinoma)): slowed tumor growth to essentially the same degree; activation of endothelial cells (HUVECs): does not activate resting HUVECs or HUVECs pre-activated with low concentrations of LPS; inhibition of growth of bEnd.3 cells (bEnd.3 cells): particularly effective; mean number of CD-31 positive vessels per square millimeter ([1]; BBG3-treated: 160±20): 50±15 per square millimeter; reduction in total tumor plasma volume vs BBG3 ([1]; FITC-dextran plasma marker): 60%; mice with long-term complete remissions ([1]; MDA-MB-231 tumors): 30%; vessels with disintegration of vascular endothelium ([1]; histological examination): about 50%; reduction in tumor vascularity ([1]; mouse, in vivo): about 70%; reduction in microvascular density ([1]; treated vs. untreated mice): 70%; direct inhibitory effect on tumor cells (tumor cells): No direct inhibitory effect on tumor cells was observed; Volume of distribution [2]: 0.1 L/kg; half-life in the α-phase of clearance [2]: 3 h; half-life in the β-phase of clearance [2]: 120 h; binding to LPC-treated ABAE cells ([3]; 20 nM): bound to LPC-treated ABAE cells; increase in area of binding upon LPC-treatment ([3]; 200 μM LPC): greater than 500 fold; enhancement of DC uptake of apoptotic tumor cells (dendritic cells): 300%
